{"source": "paper PMC9841416", "about": "“The recognition of structured elements by a conserved groove distant from domains associated with catalysis is an essential determinant of RNase E”", "binders": {"B1": {"name": "5'-monophosphorylated LU13 (ssRNA)", "RNA": "GAGACAGUAUUUG", "modifications": "5'-monophosphate"}}, "biological_target": "NTH-RNase E D346N (Escherichia coli (K12, P21513-1 in …, UniProt P21513 1-529, D346N))", "experiment": "EMSA; 15 mM CaCl2; 25 mM bis-Tris propane pH 8.3, 100 mM KCl, 15 mM CaCl2, 0.1% (v/v) Triton X-100, 1 mM DTT, 20% (v/v) glycerol, 37 C 20 min; 1% agarose gel in 1x TBE", "settings": "protein: recombinant; tags: N-terminal oligohistidine; chain copies: 4; single-stranded", "data": [{"binder": "B1", "values": [{"measurement": "Kd", "result": 56, "unit": "nM"}]}]}
